According to publication PMC6021111, “Murine leukemia virus p12 tethers the capsid-containing pre-integration complex to chromatin by binding directly to host nucleosomes in mitosis” (PLoS Pathogens, 2018):

B1: unnamed (parent)
chain 1: PALTPSLGAKPKPQVLSDSGGPLIDLLTEDPPPYRDPRPPPSDRDGNGGEATPAGEAPDPSPMASRLRGRREPPVADSTTSQAF
chain 2: MAELDPFGAPAGAPGGPALGNGVAGAGEEDPAAAFLAQQESEIAGIENDEAFAILDGGAPGPQPHGEPPGGPDAVDGVMNGEYYQESNGPTDSYAAISQVDRLQSEPESIRKWREEQMERLEALDANSRKQEAEWKEKAIKELEEWYARQDEQLQKTKANNRVADEAFYKQPFADVIGYVTNINHPCYSLEQAAEEAFVNDIDESSPGTEWERVARLCDFNPKSSKQAKDVSRMRSVLISLKQAPLVH
B2: unnamed (parent)
chain 1: B1 chain 1
chain 2: MLNMWKVRELVDKATNVVMNYSEIESKVREATNDDPWGPSGQLMGEIAKATFMYEQFPELMNMLWSRMLKDNKKNWRRVYKSLLLLAYLIRNGSERVVTSAREHIYDLRSLENYHFVDEHGKDQGINIRQKVKELVEFAQDDDRLREERKKAKKNKDKYVGVSSDSVGGFRYSERYDPEPKSKWDEEWDKNKSAFPFSDKLGELSDKIGSTIDDTISKFRRKDREDSPERCSDSDEEKKARRGRSPKGEFKDEEETVTTKHIHITQATETTTTRHKRTANPSKTIDLGAAAHYTGDKASPDQNASTHTPQSSVKTSVPSSKSSGDLVDLFDGTSQSTGGSADLFGGFADFGSAAASGSFPSQVTATSGNGDFGDWSAFNQAPSGPVASSGEFFGSASQPAVELVSGSQSALGPPPAASNSSDLFDLMGSSQATMTSSQSMNFSMMSTNTVGLGLPMSRSQNTDMVQKSVSKTLPSTWSDPSVNISLDNLLPGMQPSKPQQPSLNTMIQQQNMQQPMNVMTQSFGAVNLSSPSNMLPVRPQTNALIGGPMPMSMPNVMTGTMGMAPLGNTPMMNQSMMGMNMNIGMSAAGMGLTGTMGMGMPNIAMTSGTVQPKQDAFANFANFSK
B3: unnamed (parent)
chain 1: B1 chain 1
chain 2: MAQILPIRFQEHLQLQNLGINPANIGFSTLTMESDKFICIREKVGEQAQVVIIDMNDPSNPIRRPISADSAIMNPASKVIALKAGKTLQIFNIEMKSKMKAHTMTDDVTFWKWISLNTVALVTDNAVYHWSMEGESQPVKMFDRHSSLAGCQIINYRTDAKQKWLLLTGISAQQNRVVGAMQLYSVDRKVSQPIEGHAASFAQFKMEGNAEESTLFCFAVRGQAGGKLHIIEVGTPPTGNQPFPKKAVDVFFPPEAQNDFPVAMQISEKHDVVFLITKYGYIHLYDLETGTCIYMNRISGETIFVTAPHEATAGIIGVNRKGQVLSVCVEEENIIPYITNVLQNPDLALRMAVRNNLAGAEELFARKFNALFAQGNYSEAAKVAANAPKGILRTPDTIRRFQSVPAQPGQTSPLLQYFGILLDQGQLNKYESLELCRPVLQQGRKQLLEKWLKEDKLECSEELGDLVKSVDPTLALSVYLRANVPNKVIQCFAETGQVQKIVLYAKKVGYTPDWIFLLRNVMRISPDQGQQFAQMLVQDEEPLADITQIVDVFMEYNLIQQCTAFLLDALKNNRPSEGPLQTRLLEMNLMHAPQVADAILGNQMFTHYDRAHIAQLCEKAGLLQRALEHFTDLYDIKRAVVHTHLLNPEWLVNYFGSLSVEDSLECLRAMLSANIRQNLQICVQVASKYHEQLSTQSLIELFESFKSFEGLFYFLGSIVNFSQDPDVHFKYIQAACKTGQIKEVERICRESNCYDPERVKNFLKEAKLTDQLPLIIVCDRFDFVHDLVLYLYRNNLQKYIEIYVQKVNPSRLPVVIGGLLDVDCSEDVIKNLILVVRGQFSTDELVAEVEKRNRLKLLLPWLEARIHEGCEEPATHNALAKIYIDSNNNPERFLRENPYYDSRVVGKYCEKRDPHLACVAYERGQCDLELINVCNENSLFKSLSRYLVRRKDPELWGSVLLESNPYRRPLIDQVVQTALSETQDPEEVSVTVKAFMTADLPNELIELLEKIVLDNSVFSEHRNLQNLLILTAIKADRTRVMEYINRLDNYDAPDIANIAISNELFEEAFAIFRKFDVNTSAVQVLIEHIGNLDRAYEFAERCNEPAVWSQLAKAQLQKGMVKEAIDSYIKADDPSSYMEVVQAANTSGNWEELVKYLQMARKKARESYVETELIFALAKTNRLAELEEFINGPNNAHIQQVGDRCYDEKMYDAAKLLYNNVSNFGRLASTLVHLGEYQAAVDGARKANSTRTWKEVCFACVDGKEFRLAQMCGLHIVVHADELEELINYYQDRGYFEELITMLEAALGLERAHMGMFTELAILYSKFKPQKMREHLELFWSRVNIPKVLRAAEQAHLWAELVFLYDKYEEYDNAIITMMNHPTDAWKEGQFKDIITKVANVELYYRAIQFYLEFKPLLLNDLLMVLSPRLDHTRAVNYFSKVKQLPLVKPYLRSVQNHNNKSVNESLNNLFITEEDYQALRTSIDAYDNFDNISLAQRLEKHELIEFRRIAAYLFKGNNRWKQSVELCKKDSLYKDAMQYASESKDTELAEELLQWFLQEEKRECFGACLFTCYDLLRPDVVLETAWRHNIMDFAMPYFIQVMKEYLTKVDKLDASESLRKEEEQATETQPIVYGQPQLMLTAGPSVAVPPQAPFGYGYTAPPYGQPQPGFGYSM
B4: unnamed (parent)
chain 1: B1 chain 1
chain 2: MAQISSNSGFKECPSSHPEPTRAKDVDKEEALQMEAEALAKLQKDRQVTDNQRGFELSSSTRKKAQVYNKQDYDLMVFPESDSQKRALDIDVEKLTQAELEKLLLDDSFETKKTPVLPVTPILSPSFSAQLYFRPTIQRGQWPPGLPGPSTYALPSIYPSTYSKQAAFQNGFNPRMPTFPSTEPIYLSLPGQSPYFSYPLTPATPFHPQGSLPIYRPVVSTDMAKLFDKIASTSEFLKNGKARTDLEITDSKVSNLQVSPKSEDISKFDWLDLDPLSKPKVDNVEVLDHEEEKNVSSLLAKDPWDAVLLEERSTANCHLERKVNGKSLSVATVTRSQSLNIRTTQLAKAQGHISQKDPNGTSSLPTGSSLLQEVEVQNEEMAAFCRSITKLKTKFPYTNHRTNPGYLLSPVTAQRNICGENASVKVSIDIEGFQLPVTFTCDVSSTVEIIIMQALCWVHDDLNQVDVGSYVLKVCGQEEVLQNNHCLGSHEHIQNCRKWDTEIRLQLLTFSAMCQNLARTAEDDETPVDLNKHLYQIEKPCKEAMTRHPVEELLDSYHNQVELALQIENQHRAVDQVIKAVRKICSALDGVETLAITESVKKLKRAVNLPRSKTADVTSLFGGEDTSRSSTRGSLNPENPVQVSINQLTAAIYDLLRLHANSGRSPTDCAQSSKSVKEAWTTTEQLQFTIFAAHGISSNWVSNYEKYYLICSLSHNGKDLFKPIQSKKVGTYKNFFYLIKWDELIIFPIQISQLPLESVLHLTLFGILNQSSGSSPDSNKQRKGPEALGKVSLPLFDFKRFLTCGTKLLYLWTSSHTNSVPGTVTKKGYVMERIVLQVDFPSPAFDIIYTTPQVDRSIIQQHNLETLENDIKGKLLDILHKDSSLGLSKEDKAFLWEKRYYCFKHPNCLPKILASAPNWKWVNLAKTYSLLHQWPALYPLIALELLDSKFADQEVRSLAVTWIEAISDDELTDLLPQFVQALKYEIYLNSSLVQFLLSRALGNIQIAHNLYWLLKDALHDVQFSTRYEHVLGALLSVGGKRLREELLKQTKLVQLLGGVAEKVRQASGSARQVVLQRSMERVQSFFQKNKCRLPLKPSLVAKELNIKSCSFFSSNAVPLKVTMVNADPMGEEINVMFKVGEDLRQDMLALQMIKIMDKIWLKEGLDLRMVIFKCLSTGRDRGMVELVPASDTLRKIQVEYGVTGSFKDKPLAEWLRKYNPSEEEYEKASENFIYSCAGCCVATYVLGICDRHNDNIMLRSTGHMFHIDFGKFLGHAQMFGSFKRDRAPFVLTSDMAYVINGGEKPTIRFQLFVDLCCQAYNLIRKQTNLFLNLLSLMIPSGLPELTSIQDLKYVRDALQPQTTDAEATIFFTRLIESSLGSIATKFNFFIHNLAQLRFSGLPSNDEPILSFSPKTYSFRQDGRIKEVSVFTYHKKYNPDKHYIYVVRILREGQIEPSFVFRTFDEFQELHNKLSIIFPLWKLPGFPNRMVLGRTHIKDVAAKRKIELNSYLQSLMNASTDVAECDLVCTFFHPLLRDEKAEGIARSADAGSFSPTPGQIGGAVKLSISYRNGTLFIMVMHIKDLVTEDGADPNPYVKTYLLPDNHKTSKRKTKISRKTRNPTFNEMLVYSGYSKETLRQRELQLSVLSAESLRENFFLGGVTLPLKDFNLSKETVKWYQLTAATYL

Variants of: B1
Assay: SILAC-MS of GST pull-down
Details: with partner chain of the complex shown; mitotic 293T cell lysates; replicate R2

Row | Variant | screen value (SDs from the mean)
1 | chain 1 S65A R66A L67A R68A G69A | 1.4

Variants of: B2
Assay: SILAC-MS of GST pull-down
Details: with partner chain of the complex shown; mitotic 293T cell lysates; replicate R1

Row | Variant | screen value (SDs from the mean)
2 | chain 1 S65A R66A L67A R68A G69A | 1.4

Same assay, conditions: with partner chain of the complex shown; mitotic 293T cell lysates; replicate R2

Row | Variant | screen value (SDs from the mean)
3 | chain 1 S65A R66A L67A R68A G69A | 3.3

Variants of: B3
Assay: SILAC-MS of GST pull-down
Details: with partner chain of the complex shown; mitotic 293T cell lysates; replicate R1

Row | Variant | screen value (SDs from the mean)
4 | chain 1 S65A R66A L67A R68A G69A | 1

Same assay, conditions: with partner chain of the complex shown; mitotic 293T cell lysates; replicate R2

Row | Variant | screen value (SDs from the mean)
5 | chain 1 S65A R66A L67A R68A G69A | 2.3

Variants of: B4
Assay: SILAC-MS of GST pull-down
Details: with partner chain of the complex shown; mitotic 293T cell lysates; replicate R1

Row | Variant | screen value (SDs from the mean)
6 | chain 1 S65A R66A L67A R68A G69A | 1.4

Same assay, conditions: with partner chain of the complex shown; mitotic 293T cell lysates; replicate R2

Row | Variant | screen value (SDs from the mean)
7 | chain 1 S65A R66A L67A R68A G69A | 1.4
